Laboratory results as given in PMC2876729 (The Biochemical journal, 2010).
Each block holds one molecule with its values, some of them ahead of it.

B1: Recombinant human transglutaminase-2 (enzyme, UniProt P21980 1-687, looked up)
chain: MAEELVLERCDLELETNGRDHHTADLCREKLVVRRGQPFWLTLHFEGRNYEASVDSLTFSVVTGPAPSQEAGTKARFPLRDAVEEGDWTATVVDQQDCTLSLQLTTPANAPIGLYRLSLEASTGYQGSSFVLGHFILLFNAWCPADAVYLDSEEERQEYVLTQQGFIYQGSAKFIKNIPWNFGQFEDGILDICLILLDVNPKFLKNAGRDCSRRSSPVYVGRVVSGMVNCNDDQGVLLGRWDNNYGDGVSPMSWIGSVDILRRWKNHGCQRVKYGQCWVFAAVACTVLRCLGIPTRVVTNYNSAHDQNSNLLIEYFRNEFGEIQGDKSEMIWNFHCWVESWMTRPDLQPGYEGWQALDPTPQEKSEGTYCCGPVPVRAIKEGDLSTKYDAPFVFAEVNADVVDWIQQDDGSVHKSINRSLIVGLKISTKSVGRDEREDITHTYKYPEGSSEEREAFTRANHLNKLAEKEETGMAMRIRVGQSMNMGSDFDVFAHITNNTAEEYVCRLLLCARTVSYNGILGPECGTKYLLNLNLEPFSEKSVPLCILYEKYRDCLTESNLIKVRALLVEPVINSYLLAERDLYLENPEIKIRILGEPKQKRKLVAEVSLQNPLPVALEGCTFTVEGAGLTEEQKTVEIPDPVEAGEEVKVRMDLLPLHMGLHKLVVNFESDKLKAVKGFRNVIIGPA
B2: Recombinant human endostatin produced in HEK 293-EBNA cells (wild type) (domain or fragment, UniProt P39060 1572-1754, looked up)
chain: HSHRDFQPVLHLVALNSPLSGGMRGIRGADFQCFQQARAVGLAGTFRAFLSSRLQDLYSIVRRADRAAVPIVNLKDELLFPSWEALFSGSEGPLKPGARIFSFDGKDVLRHPTWPQKSVWHGSDPNGRRLTESYCETWRTEAPSATGQASSLLGGRLLGQSAASCHHAYIVLCIENSFMTASK

Legend:
[1] = biological target: NC1(XVIII) domain R27A/R139A double mutant (human); experiment: ELISA
[2] = biological target: Recombinant human endostatin expressed in Pichia pastoris (human) (UniProt P39060); experiment: SPR
[3] = biological target: Recombinant human endostatin produced in HEK 293-EBNA cells (wild type) (human) (UniProt P39060); experiment: SPR
[4] = biological target: B2; experiment: ELISA
[5] = biological target: B1; experiment: SPR

percent of the binding of the wild type NC1 domain [1]: 31%
Molecule: Recombinant human transglutaminase-2 (from UniProt P21980 1-687) (enzyme)

Kd [2]: 5.59 nM
koff [2]: 0.000341 s⁻¹
Kd [3]: 6.8 nM
koff [3]: 0.000765 s⁻¹
kon [3]: 112000 M⁻¹ s⁻¹
percent inhibition of binding by 1 mM GTP [3]: 96.7%
Molecule: Guinea pig TG-2 extracted from liver (enzyme)

Molecule: B1
fold increase of binding with 8 mM CaCl2 against no cation [4]: ~38 fold
fold increase of binding with 8 mM MgCl2 against no cation [4]: ~2 fold
fold increase of binding with 8 mM MnCl2 against no cation [4]: ~10 fold

Molecule: B2
binding result [5]: binds
